Assay results taken from paper PMC11215335.

Molecular target: single-chain Fv antibody fragment 18B7
Test: not stated; soluble scFv produced in the periplasm of E. coli (Fig. S2A)

Sequence of single-chain Fv antibody fragment 18B7 (scFv) (VH): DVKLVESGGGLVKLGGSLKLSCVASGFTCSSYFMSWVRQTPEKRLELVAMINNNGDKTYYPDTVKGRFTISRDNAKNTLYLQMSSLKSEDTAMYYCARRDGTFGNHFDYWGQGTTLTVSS
Sequence of single-chain Fv antibody fragment 18B7 (scFv) (VL): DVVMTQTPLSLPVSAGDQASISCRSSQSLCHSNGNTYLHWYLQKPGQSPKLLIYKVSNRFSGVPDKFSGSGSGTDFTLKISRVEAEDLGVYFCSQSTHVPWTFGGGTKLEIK

stoichiometry N: 2
Substance: single-chain Fv antibody fragment 18B7 (scFv)
